{
  "source": "the supplement of paper PMC10567573",
  "data": [
    {"experiment": "protein stability index of a GFP-peptide fusion (GPS, HEK-293T) (PSI 1-6); higher = more stable", "conditions": "parent: NP_006221.1; c terminus: native", "values": [
      {"protein": "CQPISFSGFGAEDDDLGGLGLGPM", "note": "[POLD2 addM]", "protein stability index": 2.38},
      {"protein": "CQPISFSGFGAEDDDLGGLGLGPD", "note": "[POLD2 addD]", "protein stability index": 2.2}
    ]},
    {"experiment": "protein stability index of a GFP-peptide fusion (GPS, HEK-293T) (PSI 1-6); higher = more stable", "conditions": "parent: NP_009172.2; c terminus: native", "values": [
      {"protein": "LPALFTDLYSQEITAEEAREALPM", "note": "[SNF8 addM]", "protein stability index": 3.04},
      {"protein": "LPALFTDLYSQEITAEEAREALPD", "note": "[SNF8 addD]", "protein stability index": 5.09}
    ]},
    {"experiment": "protein stability index of a GFP-peptide fusion (GPS, HEK-293T) (PSI 1-6); higher = more stable", "conditions": "parent: NP_015628.1; c terminus: native", "values": [
      {"protein": "EQRNSRWNTVLRAVKAKTHHLEPD", "note": "[TRPA1 addD]", "protein stability index": 3.91},
      {"protein": "EQRNSRWNTVLRAVKAKTHHLEPM", "note": "[TRPA1 addM]", "protein stability index": 4.79}
    ]},
    {"experiment": "protein stability index of a GFP-peptide fusion (GPS, HEK-293T) (PSI 1-6); higher = more stable", "conditions": "parent: NP_002788.1; c terminus: native", "values": [
      {"protein": "DGWIRVSSDNVADLHEKYSGSTPM", "note": "[PSMB5 addM]", "protein stability index": 2.89},
      {"protein": "DGWIRVSSDNVADLHEKYSGSTPD", "note": "[PSMB5 addD]", "protein stability index": 4.37}
    ]},
    {"experiment": "protein stability index of a GFP-peptide fusion (GPS, HEK-293T) (PSI 1-6); higher = more stable", "conditions": "parent: NP_116010.1; c terminus: native", "values": [
      {"protein": "HSLRAVSTDPPHHDHHDEFCLMPD", "note": "[BEX2 addD]", "protein stability index": 4.42},
      {"protein": "HSLRAVSTDPPHHDHHDEFCLMPM", "note": "[BEX2 addM]", "protein stability index": 3.52}
    ]}
  ]
}
